Results taken from US20130122568.
Residue numbers refer to the chain shown, from its start.

What was measured:
Experiment in all cases: cleavage_in_vitro
[1] = molecular target: T1, BamHI (Bacillus amyloliquefaciens) (UniProt P23940); settings: NEB3, 37 C
T1 sequence: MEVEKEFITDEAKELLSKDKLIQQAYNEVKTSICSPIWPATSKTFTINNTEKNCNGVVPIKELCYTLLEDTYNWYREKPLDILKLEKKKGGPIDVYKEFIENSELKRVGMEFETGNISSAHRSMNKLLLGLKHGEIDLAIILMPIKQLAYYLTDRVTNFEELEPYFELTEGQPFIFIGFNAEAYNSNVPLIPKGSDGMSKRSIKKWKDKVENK

[2] = tested on: T2, BsmBI-HF N185Y/R232A (Bacillus stearothermophilus); settings: NEB2, 55 C
T2 sequence: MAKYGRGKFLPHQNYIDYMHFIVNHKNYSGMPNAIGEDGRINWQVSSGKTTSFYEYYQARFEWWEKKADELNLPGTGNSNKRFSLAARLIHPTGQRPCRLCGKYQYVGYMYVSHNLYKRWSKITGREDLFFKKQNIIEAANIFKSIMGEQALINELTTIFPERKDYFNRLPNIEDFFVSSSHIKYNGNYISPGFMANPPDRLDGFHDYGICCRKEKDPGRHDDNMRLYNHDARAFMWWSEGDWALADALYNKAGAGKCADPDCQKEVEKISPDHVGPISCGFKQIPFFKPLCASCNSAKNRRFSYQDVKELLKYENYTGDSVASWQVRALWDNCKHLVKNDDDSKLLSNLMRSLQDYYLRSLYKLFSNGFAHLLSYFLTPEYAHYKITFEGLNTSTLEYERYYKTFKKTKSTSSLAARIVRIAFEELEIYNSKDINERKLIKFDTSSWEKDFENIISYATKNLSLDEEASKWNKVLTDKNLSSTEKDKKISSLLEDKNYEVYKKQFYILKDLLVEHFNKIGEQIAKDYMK

[3] = tested on: T3, BspQI (Bacillus sphaericus); settings: NEB3, 50 C
T3 sequence: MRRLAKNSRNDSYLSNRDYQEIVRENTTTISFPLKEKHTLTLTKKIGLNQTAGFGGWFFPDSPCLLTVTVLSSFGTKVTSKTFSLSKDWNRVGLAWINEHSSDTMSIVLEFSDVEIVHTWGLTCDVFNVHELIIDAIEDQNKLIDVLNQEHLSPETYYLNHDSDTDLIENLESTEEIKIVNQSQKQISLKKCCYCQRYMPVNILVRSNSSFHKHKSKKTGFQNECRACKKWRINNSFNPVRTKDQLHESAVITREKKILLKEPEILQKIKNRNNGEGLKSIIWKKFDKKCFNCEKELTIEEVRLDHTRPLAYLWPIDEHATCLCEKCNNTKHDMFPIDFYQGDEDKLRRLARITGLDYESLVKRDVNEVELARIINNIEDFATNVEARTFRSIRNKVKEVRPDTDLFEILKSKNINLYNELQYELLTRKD

[4] = molecular target: EcoRI (Escherichia coli RY13) (UniProt P00642); settings: NEB3, 37 C
Sequence of EcoRI (Escherichia coli RY13) (P00642 whole entry): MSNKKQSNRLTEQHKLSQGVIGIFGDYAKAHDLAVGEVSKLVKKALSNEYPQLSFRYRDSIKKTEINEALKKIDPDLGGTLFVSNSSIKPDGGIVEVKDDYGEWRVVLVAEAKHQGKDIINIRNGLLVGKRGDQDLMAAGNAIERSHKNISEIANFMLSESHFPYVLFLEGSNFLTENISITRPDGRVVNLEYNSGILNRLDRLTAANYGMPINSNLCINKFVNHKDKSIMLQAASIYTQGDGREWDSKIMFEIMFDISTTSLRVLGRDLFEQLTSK

[5] = molecular target: T4, HindIII (Haemophilus influenzae Rd) (UniProt P43870); settings: NEB2, 37 C
T4 sequence: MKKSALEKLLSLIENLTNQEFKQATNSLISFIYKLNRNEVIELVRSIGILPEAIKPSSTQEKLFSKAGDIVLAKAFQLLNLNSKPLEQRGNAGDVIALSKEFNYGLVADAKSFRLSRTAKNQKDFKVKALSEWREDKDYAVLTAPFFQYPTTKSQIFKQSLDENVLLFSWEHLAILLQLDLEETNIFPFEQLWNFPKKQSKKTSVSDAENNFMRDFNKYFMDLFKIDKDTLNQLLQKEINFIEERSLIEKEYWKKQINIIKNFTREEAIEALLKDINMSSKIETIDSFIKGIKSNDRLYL

[6] = tested on: T5, NcoI (Nocardia corallina); settings: NEB1, 37 C
T5 sequence: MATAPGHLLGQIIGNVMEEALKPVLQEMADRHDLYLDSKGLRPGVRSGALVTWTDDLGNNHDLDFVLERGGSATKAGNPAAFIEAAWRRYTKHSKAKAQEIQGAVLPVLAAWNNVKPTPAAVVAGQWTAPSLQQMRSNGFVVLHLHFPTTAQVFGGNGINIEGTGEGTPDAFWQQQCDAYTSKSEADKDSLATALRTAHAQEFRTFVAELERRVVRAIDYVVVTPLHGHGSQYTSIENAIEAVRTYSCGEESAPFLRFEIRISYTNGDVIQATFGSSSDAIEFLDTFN

[7] = tested on: T6, NcoI-HF A2T/R31A (Nocardia corallina); settings: NEB4, 37 C
T6 sequence: T5 sequence with A2T, R31A

[8] = molecular target: T7, PstI (Providencia stuartii 164) (UniProt P00640); settings: NEB3, 37 C
T7 sequence: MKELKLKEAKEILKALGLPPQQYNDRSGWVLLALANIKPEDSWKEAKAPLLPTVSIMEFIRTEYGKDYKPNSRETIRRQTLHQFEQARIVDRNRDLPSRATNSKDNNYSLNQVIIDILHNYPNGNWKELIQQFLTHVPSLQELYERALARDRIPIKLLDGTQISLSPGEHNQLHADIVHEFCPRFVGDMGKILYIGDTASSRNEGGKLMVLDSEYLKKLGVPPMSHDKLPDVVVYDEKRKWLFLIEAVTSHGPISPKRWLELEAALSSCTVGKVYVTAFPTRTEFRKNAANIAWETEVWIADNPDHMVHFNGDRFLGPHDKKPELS

[9] = tested on: T8, SspI (Sphaerotilus species); settings: NEB1, 37 C
T8 sequence: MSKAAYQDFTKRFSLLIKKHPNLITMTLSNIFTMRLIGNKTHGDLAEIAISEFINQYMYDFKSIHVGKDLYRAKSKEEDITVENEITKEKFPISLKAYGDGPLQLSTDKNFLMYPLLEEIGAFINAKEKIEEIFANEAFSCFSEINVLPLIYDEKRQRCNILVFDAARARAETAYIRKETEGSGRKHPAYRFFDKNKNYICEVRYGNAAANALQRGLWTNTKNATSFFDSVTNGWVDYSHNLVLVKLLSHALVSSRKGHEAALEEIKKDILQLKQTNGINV

Substance: lambda phage DNA
- activity (fidelity index) [1]: 32
- activity (fidelity index) [2]: > 500
- activity (fidelity index) [3]: 32
- activity (fidelity index) [4]: 250
- activity (fidelity index) [5]: 250
- activity (fidelity index) [6]: 120
- activity (fidelity index) [7]: > 64000
- activity (fidelity index) [8]: 120
- activity (fidelity index) [9]: 64
